Experimental data from US20120042399A1.

Assays:
[1] = biological target: PASD1(2) (…) presented by the HHD chimeric monochain MHC class I molecule (human; mouse)
[2] = biological target: PASD1(1) (…) presented by the HHD chimeric monochain MHC class I molecule (human; mouse)
[3] = biological target: PASD1(1) (…) presented by the HHD chimeric monochain MHC class I molecule (human; mouse); remark: listed apart in the source
[4] = biological target: PASD1(1) (…) presented by the HHD chimeric monochain MHC class I molecule (human; mouse); remark: listed apart in the source

## splenocytes from HHD mice vaccinated with p.DOM-PASD1(2) (cells without a defined receptor)
[1]
  IFNγ-secreting spot-forming cells ex vivo (ELISPOT) (SFCs/10^6 cells): 53

## splenocytes from HHD mice vaccinated with p.DOM-PASD1FL (cells without a defined receptor)
[2]
  IFNγ-secreting spot-forming cells ex vivo (ELISPOT) (SFCs/10^6 splenocytes): 756

## splenocytes from HHD mice vaccinated with p.DOM-PASD1(1) (cells without a defined receptor)
[3]
  IFNγ-secreting spot-forming cells ex vivo (ELISPOT) (SFCs/10^6 cells): 117
[4]
  specific lysis of KMS-12-HHD cells (51Cr release assay): < 40%
